In US20220169997:

What was measured:
[1] = system: PR402: SP(HSA)-PTEN-L-HSA-6xHis
[2] = system: PR405: SP(HSA)-PTEN-L-MMP2/9-HSA-6xHis
[3] = system: PR406: SP(HSA)-PTEN-L-cathepsin B-HSA-6xHis
[4] = system: PR407: SP(HSA)-PTEN-L-cathepsin B*-HSA-6xHis
[5] = system: PR408: SP(HSA)-PTEN-L-cathepsinB**-HSA-6xHis

Sequence of Recombinant active MMP2 protease (Enzo cat. #BML-SE237-0010) (chain, as listed by the source): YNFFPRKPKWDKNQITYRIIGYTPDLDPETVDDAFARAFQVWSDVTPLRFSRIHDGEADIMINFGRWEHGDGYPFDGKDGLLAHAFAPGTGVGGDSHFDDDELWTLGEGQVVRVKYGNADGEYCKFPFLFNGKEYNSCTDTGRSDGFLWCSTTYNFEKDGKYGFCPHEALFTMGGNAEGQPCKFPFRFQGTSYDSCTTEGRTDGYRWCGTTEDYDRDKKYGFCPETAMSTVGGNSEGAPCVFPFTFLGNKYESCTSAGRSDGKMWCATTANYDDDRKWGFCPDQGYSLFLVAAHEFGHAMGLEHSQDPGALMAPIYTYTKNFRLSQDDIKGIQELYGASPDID

Substance	in vitro cleavage of the fusion in CHO-3E7 supernatant, WB with F-1 anti-PTEN (no cleavage) [1]	in vitro cleavage of the fusion in CHO-3E7 supernatant (0.3 µg/ml CATSB), WB with F-1 anti-PTEN (no cleavage) [2]	in vitro cleavage of the fusion in CHO-3E7 supernatant (0.3 µg/ml CATSB), WB with F-1 anti-PTEN (no cleavage) [3]	in vitro cleavage of the fusion in CHO-3E7 supernatant (20 nM MMP2, 0/4/21 h), WB with F-1 anti-PTEN [2]	in vitro cleavage of the fusion in CHO-3E7 supernatant, WB with F-1 anti-PTEN (no cleavage) [3]	in vitro cleavage of the fusion in CHO-3E7 supernatant, WB with F-1 anti-PTEN (no cleavage) [4]	in vitro cleavage of the fusion in CHO-3E7 supernatant, WB with F-1 anti-PTEN (no cleavage) [5]
Active CATSB (BioVision #7580-5)	PR402 was not appreciably cleaved by either recombinant MMP2 or CATSB	PR405 (SEQ ID NO:129; cDNA SEQ ID NO:157) was not cleaved by CATSB	though it did not cleave PR406 (SEQ ID NO:130; cDNA SEQ ID NO:158)	–	–	–	–
Recombinant active MMP2 protease (Enzo cat. #BML-SE237-0010)	PR402 was not appreciably cleaved by either recombinant MMP2 or CATSB	–	–	MMP2 did however cleave its consensus site (SEQ ID NO:165) on PR405 only; this cleavage released a PTEN-L-like fragment (˜70 KDa)	MMP2 did however cleave its consensus site (SEQ ID NO:165) on PR405 only	MMP2 did however cleave its consensus site (SEQ ID NO:165) on PR405 only	MMP2 did however cleave its consensus site (SEQ ID NO:165) on PR405 only
